The supplement of paper PMC12042874
± gives the uncertainty stated by the source.

test: amyloid nucleation score (Sup35N fusion, yeast selection) (log enrichment); library NNK1; higher = more nucleation; inactive = no reads after selection
Outline: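 Output and input plasmid inserts were sequenced by Illumina after psi-negative yeast carrying Sup35N fused to peptides of 20 random codons had been induced 24 hours with 100 μM copper sulfate and grown 7 days at 30°C on medium lacking adenine and uracil. The nucleation score is the DiMSum log enrichment of output over input reads, centred on the mode score of non-aggregating sequences. Sequences with under 100 input reads were excluded.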

Point of comparison: HHLAKCRTLKLYLLWLQRIL, amyloid nucleation score 0.471 ± 0.54. Against it:
- SIDFV — within error, 0.989 ± 0.88
- VRIINMFVDPNIIL — higher, 6.818 ± 0.044
- KLVLYEVFSSKKKHIFLSHQ — within error, 0.586 ± 0.26
- VYHSCSDMCFKAFQVNTYQC — within error, 1.16 ± 0.66
- VKYLRYFSSLDLLLIVLQAI — within error, 0.31 ± 1.2
- KVWSGCSAPQ — higher, 2.09 ± 0.43
- SDVLYIFTYMDKCQRSRLGV — within error, 0.096 ± 0.26
- WWYQCHCSYYHAIGITSVQE — within error, 1.39 ± 0.63
- MCDYFYNIVFVKCCALWCLD — higher, 4.01 ± 0.069
- HHHLNYTINIRQSYFVMCGG — higher, 5 ± 0.071
- TIVFMRAHIFW — within error, 0.788 ± 0.25
- IGYFWCCRLETANIVFNFVW — within error, -0.724 ± 1.3
- HESGRRAIYS — within error, -0.019 ± 0.29
- LQRGQVLALADSRFCVRCSR — within error, 1.02 ± 0.57
- YAALVHTHLKDYEISIYVIN — within error, 0.988 ± 0.43
- LAIEENVRDQSGDYVWALIL — within error, -0.122 ± 0.35
- EDLRVTGAKGYGCAECRACV — within error, -0.186 ± 1.9
- SGAGVGSPVVKELSWFKLKV — within error, 0.331 ± 0.77
- YWFDYINPLMRSFAHATAIS — within error, 0.74 ± 0.9
- TGKNSC — higher, 3.44 ± 0.099
- FIVERDTHQGMHFGLMLING — within error, 0.286 ± 0.62
- RLSIFRLYPLLCRRG — within error, 0.163 ± 0.34
- NVTFEADLQLLCSRCSWFGT — higher, 3.17 ± 0.061
- DPSSLNSGPCLHMAGGCGNQ — within error, -0.249 ± 1.7
- IILYVLANFIMWWREVFNPK — within error, 0.218 ± 0.48
- TVSIGDVTRFVMAVASTTF — within error, 0.18 ± 1.1
- NNKSEVF — within error, 1.46 ± 0.74
- KMSAWQFGGHVLCNARMGYE — within error, -0.112 ± 0.36
- CLFLWVTSVL — within error, 1.19 ± 0.57
- WFCVHKTVSLDMASVDRKGQ — higher, 4.8 ± 0.088
- SLYCNGVRMPLAETSGNEHL — within error, -0.091 ± 0.43
- LSGSMGA — within error, -0.105 ± 0.44
- VVVVDDHDDVALSFIHTMSR — within error, 0.164 ± 0.43
- IVWFCINDTASVVLKTLLSH — within error, 1.36 ± 0.78
- TSGWRYGYSSYHYRTLNGFV — within error, -0.35 ± 0.47
- HSYYGHPHTCFAMKEEVHVR — within error, 0.035 ± 0.77
- ASFEKFNNVTLGCSTDSE — within error, 0.666 ± 0.48
- SPRAWRMGHGLVGWVMEKKG — within error, 0.476 ± 1.1
- VKRGHNGGSAITISLDLYLF — higher, 5.11 ± 0.069
- ILYFMLSRFTVVN — within error, 0.881 ± 0.76
- DWVLTGGRIWK — lower, -0.803 ± 0.54
- DWPFQYDVKSRLVILLWFVR — within error, 0.086 ± 1.4
- TGATATYKFFIFFIL — higher, 1.28 ± 0.22
- AMRLMDILCLIVCPHEYMWP — higher, 1.54 ± 0.17
- KSLQTETFTKTAATQKSELA — within error, -0.3 ± 0.52
- DAQWAYYTRTYFWYVFSAVC — within error, 0.27 ± 0.23
- LTCKMDIDKVWVGDMLYS — within error, -0.677 ± 0.62
- YEGGM — within error, -0.334 ± 0.73
- KGFFNAITGDKIPRPSRDRR — within error, 0.174 ± 0.48
- EDTWVLLSHYHFNSMLSLLM — within error, 0.161 ± 0.26
- CSTALLDEKLLFHGTYIMRD — within error, 1.08 ± 0.57
- HYMMADLGFWQYP — within error, 0.138 ± 0.94
- FKSVFVRTIHATYIVSWAN — within error, -0.413 ± 1.5
- IIRDSFKNRPETAYTHRTWD — within error, 1.13 ± 0.15
- AALSC — within error, 0.844 ± 0.46
- LNWSNKWSFTNMRRFCAMF — within error, 0.01 ± 0.26
- MQTLPIR — within error, -0.519 ± 0.46
- FDSQDSISFGDGTFKSVWPM — within error, 0.177 ± 0.31
- YYVVVFVANAVFPQYPDPRN — higher, 7.21 ± 0.055
- YMTQIMHKARRFNAWPAVMM — within error, 0.087 ± 0.3
- MERDEFKFLGERLGWLSCWR — within error, 1.04 ± 0.57
- CIFTRKGIEVVCWLEGRMVP — within error, 0.411 ± 1.2
- GSRVVQRYVAVHACVHERVT — within error, 0.589 ± 0.4
- LHERRYSLLSLESLIHNKSC — lower, -0.752 ± 0.61
- HWLGYVVLDLFDWPYCMIDL — within error, 1.38 ± 0.5
- GMSCWGLCSYNTRAYRNNPT — within error, -0.151 ± 0.63
- TSGLSGSESKESTDKCCIEC — within error, 0.713 ± 0.92
- WLLMSCTHCSCLKMRIHWKG — within error, -1.1 ± 2.4
- FGANHCKRSNGK — within error, 0.233 ± 0.22
- FWRKENGYWLGFMPLVREGT — within error, 0.247 ± 0.35
- VNTMPILFFMPCVMKLSV — within error, 1.53 ± 0.57
- MWNGMAGMSQAGSCQRCS — within error, -0.287 ± 0.71
- ATREQDFWWFDER — lower, -1.48 ± 1.2
- ELYSDHIMTWM — within error, 0.69 ± 0.36
- ISGMRGFILLGRRVFTKVSS — within error, -0.277 ± 0.33
- VPRLLYQFLTSHTVVDSPEV — within error, -0.069 ± 0.56
- YELAMECYVSWVLLYVA — within error, 0.362 ± 0.32
- VFSFYNRNLLILNISLYGYC — higher, 5.89 ± 0.085
- DGTVR — higher, 1.62 ± 0.17
- GKHLTRNAWGRLSLVTDCVR — within error, 0.486 ± 0.5
- WVAINPCV — within error, 0.464 ± 0.88
- ARTDWFLNSRSSDYAIGFPY — within error, -0.157 ± 0.79
- FGDSFLSYGHMLIFFWYMTM — within error, 1.21 ± 0.64
- RTCHDWVIEGSMRILTARIM — within error, -1.29 ± 1.8
- CGGFRNMRVPVHLVPACRW — within error, 0.334 ± 0.68
- MLNINVTYGFGDLREWNRIF — higher, 1.16 ± 0.13
- PYSSDAKMCHLLETASNLLV — within error, 0.577 ± 0.56
- ATTLGCQWDWKWSAFGAWLQ — within error, -1.08 ± 1.1
- CRAGY — within error, -0.534 ± 0.64
- IKCPRLK — within error, -0.466 ± 0.66
- YNYDPRFVY — within error, -0.246 ± 0.28
- KGGSPQYNGVTSMWWDRKFD — within error, -0.255 ± 0.38
- RYTIDLMSFNIKFWSHTLLH — within error, -0.869 ± 1.5
- DLDSVGTVMGDQGDFS — within error, -0.416 ± 0.55
- QSFFHCVLYAIPHVRLS — within error, -1.07 ± 1.1
- DVFIGMMLRACNVLHSGWFS — within error, 0.18 ± 0.23
- EFEPLSFQLVVELMRKFL — higher, 1.52 ± 0.19
- YRTNRKEHSYVLLYARRPSQ — within error, 0.56 ± 0.72
- SQVLGSLLFRSPRVWICVAG — within error, -0.969 ± 2.1
- VELSYCMQRMSARIQCGRKP — higher, 2.09 ± 0.43
- FANLDSMNLIGKGFSMNYAL — within error, -0.614 ± 0.97
- MGMGNVYAIQFCPMILWD — higher, 6.783 ± 0.057
- QDTVFYMTDWGCGATKARDD — within error, 0.117 ± 0.94
- WEPTR — within error, 0.174 ± 0.59
- CYTLFAVVNMLLVFNWQCRD — within error, -0.34 ± 0.36
- PNYHGVRGM — within error, -0.086 ± 1.2
- CYAGFCNQRLPHYLLKLQVL — within error, -0.42 ± 1.7
- LADDHE — within error, 0.229 ± 0.93
- EGSIFCMRNCRTIWCSEE — within error, -0.359 ± 0.33
- FHTRVKEWVGPAFLGSANLG — within error, 0.25 ± 0.5
- GGSYKEYTLCKHTAP — within error, 0.506 ± 0.67
- IAAVQ — within error, 0.162 ± 0.89
- STHNTRFGVY — within error, 0.167 ± 0.24
- TYSKSVCWAHHHSYTGVCLT — within error, 0.127 ± 0.52
- RSGMFMGDWYSAAWKGKTSS — within error, 0.137 ± 0.31
- SLRWSQSPFYFVTSIGRQGG — within error, 0.585 ± 0.55
- CSDNV — within error, 1.01 ± 0.49
- KRVLNLFGEESFAGMIWIDY — within error, -0.125 ± 0.97
- CLARGSKYWNRQNKVNFPYI — higher, 1.51 ± 0.13
- QVFVIIIFPCMQWYDMYCSD — within error, 0.356 ± 0.55
- RGGWRTVQCSLNQGWLRRYL — within error, 0.048 ± 0.42
- RVILARHHPDDCMGLR — within error, -0.26 ± 0.39
- SPRLAGMVSMVDKCRRASGR — within error, 0.097 ± 0.33
- RNTRTDSSTQTLLIVSHH — within error, 0.011 ± 0.51
- LASEHNGASLICTLACTYLW — within error, -0.642 ± 1
- NKSCDGVRLCREARKALEPC — within error, 0.34 ± 0.52
- YFCCALSNLLFRKSKHDRVR — higher, 6.872 ± 0.068
- IHRLSARCRLNI — within error, 0.657 ± 0.42
- FHPKFWCNRFS — within error, -0.442 ± 0.72
- ITVSKKATWCRQRGMRGLRG — higher, 1.65 ± 0.59
- FFCERVLPVRVVC — within error, 1.06 ± 0.76
- SLCVWDSFNPERTGLFMRWI — within error, 0.99 ± 0.93
- MYTQGMYQEDSRDGNGW — within error, -0.189 ± 0.25
- SCPWLDSSLCFMNVGVLIYK — higher, 3.37 ± 0.062
- IIIRCKSVVA — within error, -0.656 ± 1.9
- FGRGHGLTGR — within error, 0.25 ± 0.63
- TFSHWPLWNVYRSFAFTCRP — within error, 0.871 ± 0.47
- CDMNPSDYDPLCEVSHRIIS — within error, 0.561 ± 0.24
- DSRNTDFTCYFEIYYCCVNL — higher, 8.069 ± 0.063
- NNSSIVFLW — within error, -0.057 ± 1.4
- DSMYF — within error, 0.367 ± 0.53
- NLGFTRSPHAETSLFTH — within error, 0.235 ± 0.47
- WPRVGETSRVNLTTGIMS — within error, -0.297 ± 0.29
- WQQGLVCQI — within error, 0.241 ± 0.37
- YGINMWRYLGNQEEATIVFL — within error, 0.244 ± 0.3
- SFVCRCFSMCNGEILFLIPY — within error, 0.644 ± 1
- LYLNADLYYE — within error, 0.005 ± 0.7
- IRFKRFGADAHGNKYNSRWI — within error, 1.13 ± 0.32
- YKFYVTTLGFYDWCPFPVER — within error, 0.831 ± 0.42
- VLTEGYLFTSLIDL — within error, -0.22 ± 0.43
- GSERPNPV — within error, 0.958 ± 0.63
- CDPGVKYSVSKAYRGWEYAL — within error, -0.042 ± 1.2
- LGYVIYFVFWRRHSFSYSAC — lower, -0.407 ± 0.31
- SVNRCGVYFTEGFFSLRWS — within error, 1.13 ± 0.25
- ESIFLRRTVALHRKVCLIDW — within error, 0.783 ± 0.36
- FKLGFGVYIVVGKEGFVVSR — higher, 2.02 ± 0.23
- LAHWHFNWSRILQCFYW — higher, 3.08 ± 0.095
- SETQNRLS — within error, -0.024 ± 0.33
- KADIFYSLCFLRVEG — within error, -0.338 ± 0.79
- KLINCLGIVL — within error, -0.92 ± 1.1
- GDYSCPLGNIINHDPMLFRW — within error, 0.107 ± 0.23
- FVGIQHRMSYWLCGRHAIVI — within error, 0.965 ± 0.71
- PWVTLVRAMCMFINVDLVSR — within error, 0.201 ± 0.72
- SIQPIW — within error, 0.952 ± 0.5
- VTYVMCFAMEMMVGRCRWGG — within error, -0.029 ± 1.4
- MKSCASDPVCCPQTTRSTSL — within error, 0.742 ± 0.49

For DLHWILNHTNGACFQWGQPA, the amyloid nucleation score was “inactive”.
For HIAHTEPGAIWV, the amyloid nucleation score was “inactive”.
For PVGRCDQRDTRIHWGNYKVE, the amyloid nucleation score was “inactive”.
For PWSRDARPSADW, the amyloid nucleation score was “inactive”.
In the case of SFFLLPMWLIVGSRGHQRRT, the amyloid nucleation score is reported as “inactive”.
